From patent US6521594 (LA JOLLA CANCER RESEARCH FOUNDATION, dated 2003)
Starred links: 1 amine or outer side, 2 acyl side, 3 side chain; linkers in the order of their positions; H or OH if unused. Positions of bridges follow the written chain, without caps; N, C: chain ends. Non-standard residues stand in square brackets, D forms with d. Primed or numbered codes have the meaning given here. No end group written: not given here. *: point of attachment. Tyr(OMe)″ = O-methyl-tyrosine (Y-OMe, TyrOMe, O-Me-Tyr), COc1ccc(C[C@H](N[*:1])C(=O)[*:2])cc1; Tyr(Me)(4) = O-methyl-tyrosine (O-Me-Tyr, TyrMe), COc1ccc(C[C@H](N[*:1])C(=O)[*:2])cc1; Tyr(Me) = O-methyl-tyrosine (Y-OMe, O-Me-Tyr), COc1ccc(C[C@H](N[*:1])C(=O)[*:2])cc1; Tyr(Me)(3) = O-methyl-tyrosine (O-Me-Tyr), COc1ccc(C[C@H](N[*:1])C(=O)[*:2])cc1; Tyr(nHex) = O-n-hexyl-tyrosine, CCCCCCOc1ccc(C[C@H](N[*:1])C(=O)[*:2])cc1; Tyr(OMe)(3) = O-methyl-tyrosine, COc1ccc(C[C@H](N[*:1])C(=O)[*:2])cc1; Cys(β,β-pentamethylene) = O=C([C@@H](N[*:1])C1(S[*:3])CCCCC1)[*:2]; Phe(4-NO2) = N[C@@H](Cc1ccc([N+](=O)[O-])cc1)C(=O)O; Tyr(3,5-I2) = N[C@@H](Cc1cc(I)c(O)c(I)c1)C(=O)O; Cyclohexylacetyl(1-SH) = O=C(CC1(S)CCCCC1)*; Phe(4-I) = N[C@@H](Cc1ccc(I)cc1)C(=O)O; 1Nal = N[C@@H](Cc1cccc2ccccc12)C(=O)O; Cha = N[C@@H](CC1CCCCC1)C(=O)O; dPen = CC(C)(S)[C@@H](N)C(=O)O; Pen = CC(C)(S)[C@H](N)C(=O)O; Orn = NCCC[C@H](N)C(=O)O

B1: K(Pen)GRGDTPCA (peptide)
peptide: K[Pen]GRGDTPCA
modifications: disulfide 2-9
notes: 21 numbers stand for 20 rows, so none is assigned

Assays:
[1] = target: Platelet glycoprotein IIb/IIIa (human, UniProt P08514 32-1039; P05106 27-788); experiment: cell-based or functional assay
Vitronectin receptor = target: T1, Vitronectin receptor (human, UniProt P06756 31-1048; P05106 27-788); experiment: competition, ELISA or liposome assay, vitronectin coated
T1 construct: mature; also called Vn-R; VnR
T1 sequence (P06756 31-1048, chain 1 of 2): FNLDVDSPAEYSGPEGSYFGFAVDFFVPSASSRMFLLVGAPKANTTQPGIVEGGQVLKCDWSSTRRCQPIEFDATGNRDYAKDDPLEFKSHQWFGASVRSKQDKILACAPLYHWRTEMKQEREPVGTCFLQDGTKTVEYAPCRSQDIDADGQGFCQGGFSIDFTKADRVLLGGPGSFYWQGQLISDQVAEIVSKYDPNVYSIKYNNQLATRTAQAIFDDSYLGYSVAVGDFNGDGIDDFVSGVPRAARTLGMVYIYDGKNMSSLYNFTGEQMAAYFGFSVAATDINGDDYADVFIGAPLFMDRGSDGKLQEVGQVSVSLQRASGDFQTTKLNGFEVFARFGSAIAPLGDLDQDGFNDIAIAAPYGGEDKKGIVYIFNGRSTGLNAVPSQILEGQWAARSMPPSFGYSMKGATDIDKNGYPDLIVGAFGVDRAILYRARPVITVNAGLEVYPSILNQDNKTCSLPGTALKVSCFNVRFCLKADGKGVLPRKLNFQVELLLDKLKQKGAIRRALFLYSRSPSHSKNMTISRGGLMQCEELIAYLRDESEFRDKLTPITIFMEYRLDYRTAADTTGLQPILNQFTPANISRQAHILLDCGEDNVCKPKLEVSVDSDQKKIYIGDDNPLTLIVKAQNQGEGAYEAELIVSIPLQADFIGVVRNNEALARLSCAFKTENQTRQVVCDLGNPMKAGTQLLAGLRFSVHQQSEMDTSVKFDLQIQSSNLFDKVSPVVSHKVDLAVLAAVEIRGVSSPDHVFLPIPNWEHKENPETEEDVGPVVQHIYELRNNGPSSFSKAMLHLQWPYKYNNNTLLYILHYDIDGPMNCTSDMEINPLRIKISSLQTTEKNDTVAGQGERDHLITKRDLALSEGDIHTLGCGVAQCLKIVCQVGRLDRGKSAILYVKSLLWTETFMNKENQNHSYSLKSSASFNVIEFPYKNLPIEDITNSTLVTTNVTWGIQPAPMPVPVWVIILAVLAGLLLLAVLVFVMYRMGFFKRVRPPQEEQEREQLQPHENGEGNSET
T1 sequence (P05106 27-788, chain 2 of 2): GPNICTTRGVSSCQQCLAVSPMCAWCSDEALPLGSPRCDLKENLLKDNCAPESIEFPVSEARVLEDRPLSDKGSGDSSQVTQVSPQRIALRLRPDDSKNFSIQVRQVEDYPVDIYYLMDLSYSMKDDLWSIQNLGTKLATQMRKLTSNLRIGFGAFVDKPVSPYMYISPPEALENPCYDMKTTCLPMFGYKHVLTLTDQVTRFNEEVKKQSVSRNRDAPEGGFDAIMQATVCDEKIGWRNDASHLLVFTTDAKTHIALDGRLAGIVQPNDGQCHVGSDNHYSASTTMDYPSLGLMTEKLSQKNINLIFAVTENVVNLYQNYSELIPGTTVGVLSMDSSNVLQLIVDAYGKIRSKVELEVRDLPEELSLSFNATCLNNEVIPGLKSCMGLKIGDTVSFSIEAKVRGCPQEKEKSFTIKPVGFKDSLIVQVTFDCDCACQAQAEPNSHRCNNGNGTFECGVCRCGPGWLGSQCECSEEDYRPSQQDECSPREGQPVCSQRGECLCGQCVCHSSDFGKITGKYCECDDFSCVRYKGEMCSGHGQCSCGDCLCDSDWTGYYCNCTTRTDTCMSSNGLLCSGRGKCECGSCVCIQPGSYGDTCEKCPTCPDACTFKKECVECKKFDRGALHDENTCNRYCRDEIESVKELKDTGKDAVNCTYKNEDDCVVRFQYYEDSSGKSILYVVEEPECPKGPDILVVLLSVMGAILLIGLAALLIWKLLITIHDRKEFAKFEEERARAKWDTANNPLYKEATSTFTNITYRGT

Fibronectin receptor = target: T2, Fibronectin receptor (human, UniProt P08648 42-1049; P05556 21-798); experiment: competitive ELISA, fibronectin coated
T2 construct: mature; Purified on a 110 kd fibronectin fragment column; also called Fn-R; FnR
T2 sequence (P08648 42-1049, chain 1 of 2): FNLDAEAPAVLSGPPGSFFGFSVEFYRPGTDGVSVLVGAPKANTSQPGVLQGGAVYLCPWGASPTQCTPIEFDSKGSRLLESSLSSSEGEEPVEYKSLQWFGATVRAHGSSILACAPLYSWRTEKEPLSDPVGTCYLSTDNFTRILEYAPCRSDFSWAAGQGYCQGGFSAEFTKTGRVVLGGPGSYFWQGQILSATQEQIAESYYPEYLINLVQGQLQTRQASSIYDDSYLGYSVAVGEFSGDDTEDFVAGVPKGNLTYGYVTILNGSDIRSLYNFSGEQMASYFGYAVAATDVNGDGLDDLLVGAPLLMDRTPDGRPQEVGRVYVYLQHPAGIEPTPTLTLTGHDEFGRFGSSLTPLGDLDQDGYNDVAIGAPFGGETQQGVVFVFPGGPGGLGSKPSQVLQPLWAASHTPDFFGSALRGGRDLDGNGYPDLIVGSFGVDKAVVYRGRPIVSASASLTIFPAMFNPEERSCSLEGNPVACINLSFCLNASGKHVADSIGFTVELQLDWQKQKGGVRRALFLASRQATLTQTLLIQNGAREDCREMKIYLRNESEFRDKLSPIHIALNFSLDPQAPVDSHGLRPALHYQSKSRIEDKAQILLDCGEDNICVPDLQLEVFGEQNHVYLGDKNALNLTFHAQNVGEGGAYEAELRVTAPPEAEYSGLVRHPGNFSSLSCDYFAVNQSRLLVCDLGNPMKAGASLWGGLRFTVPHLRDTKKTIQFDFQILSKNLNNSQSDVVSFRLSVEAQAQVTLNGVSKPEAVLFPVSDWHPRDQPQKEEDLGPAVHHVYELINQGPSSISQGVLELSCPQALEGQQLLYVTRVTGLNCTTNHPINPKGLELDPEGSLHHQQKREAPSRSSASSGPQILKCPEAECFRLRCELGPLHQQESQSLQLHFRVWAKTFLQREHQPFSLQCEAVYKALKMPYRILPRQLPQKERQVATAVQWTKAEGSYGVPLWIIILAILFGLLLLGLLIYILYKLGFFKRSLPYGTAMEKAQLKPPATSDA
T2 sequence (P05556 21-798, chain 2 of 2): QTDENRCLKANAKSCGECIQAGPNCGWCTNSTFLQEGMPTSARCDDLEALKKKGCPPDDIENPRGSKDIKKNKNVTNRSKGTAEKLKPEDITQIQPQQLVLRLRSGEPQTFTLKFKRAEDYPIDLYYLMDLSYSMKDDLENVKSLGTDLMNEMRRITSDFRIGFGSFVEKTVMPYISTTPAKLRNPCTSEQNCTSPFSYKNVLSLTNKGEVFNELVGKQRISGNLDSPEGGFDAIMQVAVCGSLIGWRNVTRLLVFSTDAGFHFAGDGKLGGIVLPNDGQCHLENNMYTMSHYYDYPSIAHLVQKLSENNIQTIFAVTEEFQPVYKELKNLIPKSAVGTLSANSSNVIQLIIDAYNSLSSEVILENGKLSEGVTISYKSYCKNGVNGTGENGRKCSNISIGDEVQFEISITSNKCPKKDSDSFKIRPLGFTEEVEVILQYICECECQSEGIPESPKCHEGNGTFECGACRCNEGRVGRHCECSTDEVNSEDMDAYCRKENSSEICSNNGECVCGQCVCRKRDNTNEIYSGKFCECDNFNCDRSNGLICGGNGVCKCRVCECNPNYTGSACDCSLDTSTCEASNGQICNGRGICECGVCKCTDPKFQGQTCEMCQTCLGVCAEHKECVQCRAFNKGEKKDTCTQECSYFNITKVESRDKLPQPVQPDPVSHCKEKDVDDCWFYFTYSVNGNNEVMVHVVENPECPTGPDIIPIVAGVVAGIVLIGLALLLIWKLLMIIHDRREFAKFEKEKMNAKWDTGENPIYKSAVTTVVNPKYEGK

Binder | IC50, ADP-Stimulated Aggregation [1] [µM] | IC50 (Vitronectin receptor) [µM] | also measured
G[Pen]FRGDSFCA (disulfide 2-9) [G(Pen)FRGDSFCA] | < 200 | 0.05 | –
B1 | – | – | IC50 (Fibronectin receptor): 0.03 µM
G[Pen]GRGDSFCA (disulfide 2-9) [G(Pen)GRGDSFCA] | 115 | 0.02 | –
G[Pen]GRGDRPCA (disulfide 2-9) [G(Pen)GRGDRPCA] | 22.3 | – | –
G[Pen]LRGDSPCA (disulfide 2-9) [G(Pen)LRGDSPCA] | 415 | – | IC50, Thrombin Stimulated Aggregation [1]: 308 µM
R[Cys(β,β-pentamethylene)]GHRGD[Tyr(Me)(4)]RCR (disulfide 2-10; also: am-Pmp2 from racemic mixture) [R(am-Pmp)GHRGD(TyrMe)RCR] | – | 1 | –
R[dPen]NPRGD[Tyr(OMe)(3)]RCR (disulfide 2-10) [R(dPen)NPRGD(O-Me-Tyr)RCR] | – | – | IC50 (Fibronectin receptor): 10 µM
R[Cys(β,β-pentamethylene)]GHRGD[Tyr(nHex)]RCR (disulfide 2-10) [R(Pmc)GHRGD(O-n-hexyl-Tyr)RCR] | – | – | IC50 (Fibronectin receptor): 2 µM
LRGDSPDG | 150 | 0.2 | –
YRGDSPDG | – | 0.08 | –
G[Pen]GRGDTPCA (disulfide 2-9) [G(Pen)GRGDTPCA] | 22.3 | – | –
G[Pen]LRGDSRCA (disulfide 2-9) [G(Pen)LRGDSRCA] | 41 | – | IC50, Thrombin Stimulated Aggregation [1]: 49 µM
R[Cys(β,β-pentamethylene)]GRGDWPCR (disulfide 2-9) [R(am-Pmp)GRGDWPCR] | – | – | IC50 (Fibronectin receptor): 0.05 µM
R[Cys(β,β-pentamethylene)]GRGDTPCA (disulfide 2-9) [R(AminoPmp)GRGDTPCA] | – | – | IC50 (Fibronectin receptor): 0.03 µM
R[Pen]GRGDTPCR (disulfide 2-9) [R(Pen)GRGDTPCR] | – | 0.01 | IC50, Thrombin Stimulated Aggregation [1]: 2 µM
R[Pen]GRGDWPCR (disulfide 2-9) [R(Pen)GRGDWPCR] | – | – | IC50, Thrombin Stimulated Aggregation [1]: 0.53 µM
G[Pen]LRGDTPCA (disulfide 2-9) [G(Pen)LRGDTPCA] | 86 | – | –
R[Orn]GHRGDLRDR [R(orn)GHRGDLRDR] | < 200 | – | –
R[Pen]GRGDLRCA (disulfide 2-9) [R(Pen)GRGDLRCA] | 16 | – | IC50, Thrombin Stimulated Aggregation [1]: 13 µM

Binder | IC50, ADP-Stimulated Aggregation [1] [µM] | IC50 (Vitronectin receptor) [µM] | also measured
D[Cys(β,β-pentamethylene)]GHRGD[Tyr(OMe)″]RCR (disulfide 2-10) [D(Pmc)GHRGD(O-Me-Tyr)RCR] | – | – | IC50 (Fibronectin receptor): 10 µM
G[Cys(β,β-pentamethylene)]GHRGD[Tyr(Me)(3)]RCR (disulfide 2-10) [G(Pmc)GHRGD(O-Me-Tyr)RCR] | – | 10 | IC50 (Fibronectin receptor): 10 µM
R[Cys(β,β-pentamethylene)]GHRGD[Tyr(Me)]KCR (disulfide 2-10) [R(Pmc)GHRGD(O-Me-Tyr)KCR] | – | 10 | IC50 (Fibronectin receptor): 10 µM
R[Cys(β,β-pentamethylene)]GHRGD[Phe(4-I)]KCR (disulfide 2-10) [R(Pmc)GHRGD(p-iodo-Phe)KCR] | – | 8 | –
R[Cys(β,β-pentamethylene)]GHRGD[Phe(4-NO2)]KCR (disulfide 2-10) [R(Pmc)GHRGD(p-nitro-Phe)KCR] | – | 10 | –
R[Pen]GHRGD[1Nal]RCR (disulfide 2-10) [R(Pen)GHRGD(1-Nal)RCR] | – | – | IC50 (Fibronectin receptor): 10 µM
G[Pen]GHRGDTRCA (disulfide 2-10) [G(Pen)GHRGDTRCA] | 11.3 | – | IC50, Thrombin Stimulated Aggregation [1]: 17 µM
L[Pen]GHRGDLRCA (disulfide 2-10) [L(Pen)GHRGDLRCA] | 10.5 | – | –
R[Pen]GRGDSRCA (disulfide 2-9) [R(Pen)GRGDSRCA] | 12 | – | IC50, Thrombin Stimulated Aggregation [1]: 12 µM
[t‑butylAmino‑Pmp]GHRGDLRCA (disulfide 1-9; also: place of tert-butyl and chirality not given here) [(t-butylAmino-Pmp) GHRGDLRCA] | 130 | – | –
R[Cys(β,β-pentamethylene)]GHRGDFRCR (disulfide 2-10 (inferred)) [R(Pmc)GHRGDFRCR] | 0.62 | – | –
R[Cys(β,β-pentamethylene)]GHRGDYRCR (disulfide 2-10) [R(Pmc)GHRGDYRCR] | 1 | – | –
R[Cys(β,β-pentamethylene)]GHRGDVRCR (disulfide 2-10; not fully specified; printed as R(Pmc)GHRGDVRCR) [R(Pmc)GHRGDVRCR] | 0.69 | 2 | –
XGHRGDLRXA (not fully specified; t-but-am-Pmp at 1; Pen at 9) [(t-but-am-Pmp)GHRGDLR(Pen)A] | 89 | – | –
R[Cys(β,β-pentamethylene)]GHRGD[Tyr(3,5-I2)]RCR (disulfide 2-10) [R(Pmc)GHRGD(3,5-diiodo-Tyr)RCR] | – | 0.9 | –
R[Cys(β,β-pentamethylene)]RGD[Cha]CR (disulfide 2-7) [R(am-Pmp)RGD(Cha)CR] | < 200 | – | –
R[Pen]GHRGDTRCR (disulfide 2-10) [R(Pen)GHRGDTRCR] | 8.8 | – | –
G[Pen]YRGDSPCA (disulfide 2-9) [G(Pen)YRGDSPCA] | 47 | – | –
[Cyclohexylacetyl(1-SH)]GHRGDLRCA (disulfide 1-9) [(Pmp)GHRGDLRCA] | – | 10 | –
